We go through 21 sequences from the DeepSol protein solubility set.

The nature of this data set: soluble on expression in E. coli; label from the status in PepcDB or PDB records.
For “MDAPKAGYAFEYLIETLNDSSHKKFFDVSKLGTKYDVLPYSIRVLLEAAVRNCDGFLMKKEDVMNILDWKTKQSNVEVPFFPARVLLQDFTGIPAMVDFAAMREAVKTLGGDPEKVHPACPTDLTVDHSLQIDFSKCAIQNAPNPGGGDLQKAGKLSPLKVQPKKLPCRGQTTCRGSCDSGELGRNSGTFSSQIENTPILCPFHLQPVPEPETVLKNQEVEFGRNRERLQFFKWSSRVFKNVAVIPPGTGMAHQINLEYLSRVVFEEKDLLFPDSVVGTDSHITMVNGLGILGWGVGGIETEAVMLGLPVSLTLPEVVGCELTGSSNPFVTSIDVVLGITKHLRQVGVAGKFVEFFGSGVSQLSIVDRTTIANMCPEYGAILSFFPVDNVTLKHLEHTGFSKAKLESMETYLKAVKLFRNDQNSSGEPEYSQVIQINLNSIVPSVSGPKRPQDRVAVTDMKSDFQACLNEKVGFKGFQIAAEKQKDIVSIHYEGSEYKLSHGSVVIAAVISCTNNCNPSVMLAAGLLAKKAVEAGLRVKPYIRTSLSPGSGMVTHYLSSSGVLPYLSKLGFEIVGYGCSTCVGNTAPLSDAVLNAVKQGDLVTCGILSGNKNFEGRLCDCVRANYLASPPLVVAYAIAGTVNIDFQTEPLGTDPTGKNIYLHDIWPSREEVHRVEEEHVILSMFKALKDKIEMGNKRWNSLEAPDSVLFPWDLKSTYIRCPSFFDKLTKEPIALQAIENAHVLLYLGDSVTTDHISPAGSIARNSAAAKYLTNRGLTPREFNSYGARRGNDAVMTRGTFANIKLFNKFIGKPAPKTIHFPSGQTLDVFEAAELYQKEGIPLIILAGKKYGSGNSRDWAAKGPYLLGVKAVLAESYEKIHKDHLIGIGIAPLQFLPGENADSLGLSGRETFSLTFPEELSPGITLNIQTSTGKVFSVIASFEDDVEITLYKHGGLLNFVARKFS”, the “soluble on expression in E. coli” value is listed as “soluble”.
On to “MKCSKCGREAIYFARYEGRYYCHKHFNELVEGKVKRTIRKYRMIKRGEKVGVAVSGGKDSVVLMHILAKLRKKFPFELVAITIDEGIKGYRDKSVEVARKNAELLGVEHHIYRFKDFIGFTLDETVEIMGPREERVGACSYCGVWRRWLLNKAAEELGVDKLALGLNLDDEVQVFLMNLMRGDVARLGRTGPYYEVIHEGLVPRIKPLREVPEKEIVLYAVLNNIEVDLSECPYATEAFRAEIRDWLNEMEEKHPGTKYQLLRSYDKIFPLLAKTYAKEVKLNRCKICGQPTSGEICKACQFRLQVKEKSENLKFSLTK”, for which the “soluble on expression in E. coli” value is reported as “not soluble”.
Then “ADPEKSYAEGPGLDGGECFQPSKFKIHAVDPDGVHRTDGGDGFVVTIEGPAPVDPVMVDNGDGTYDVEFEPKEAGDYVINLTLDGDNVNGFPKTVTVKPA”, with “soluble”; and “QPVACPDCGPTLRLVDASGAGLPGDPVDQTVELLTEGKIVAIKGLGGYHLAVDAANDAAVAELRRRKHRDEKPFAVMARDMEAVARFALVDSVEARLLTGPEHPIVLLRKRPSTILSGRVAPANGYIGTMLPYTPLHHLLLEERFAALVMTSGNLSDEPISYRDDEAVERLSAIADAFLVHDREIRTRIDDSVIRVFRGSPLFLRRSRGYVPREVRLPVEIP”, with “not soluble”.
The value for “MGSLEKFNLIDEPWIPVLKGGRVVEVGIGEALLRAHEFARIETPSPLEEAVLHRLLLAVLHRALSGPRCPEDVLDWWRKGGFPQDPIRDYLNRFRDRFFLFHPEAPFLQVADLPEENPLPWSKLLPELASGNNPTLFDHTTEENLPKATYAQAARALLVHQAFAPGGLLRRYGVGSAKDAPVARPALFLPTGQNLLETLLLNLVPYTPEDDAPIWEVPPLRLGDLEGARTKWPLTGRTRVYTWPARGVRLLDEGDGVRFMGYGPGVEPLEATHRDPMVAQRLDAKGNLLVLRLSEERSFWRDFSAMLPRQGGKVAATLEHAENLQGELEDEGLEGRITLRVLGQVSDQAKVLDIRREVYPLPSGLLTPKAEENLEKALKMAEELGQGLKHLAQEVAKAVVGERDRGHGRSPYLEELTKLANSLPLERLYWHALDGAFPRFFARVEEEASLDLWREALRGAALEAWKATRRFLGTGARHLKALAQGEQEFGRLLGELGEEVRT” was “soluble”; that for “MGSDKIHHHHHHVLRAGLIHSLASRPQTWHSTAMDSDGYEIETHVGRRRAMRYHFWIDHEILRYPWTNFDEIAPGVFRSNHPTRARFKAYAERGIKTILTLRGGEDRPHHLLEVEACRDFGLTFECVPMSARHAPTVAQLSAVFEVLDRIERPFLIHCKSGADRTGLVSAIYLMHYENIPFDQARVQLSFRYIHIRRSQTGILDVFLEAFAARHAETGIGIRDWIMTEYDEAALTASFDQRQRNLWPWEGWRSGVS” was “not soluble”; that for “MNEKFRTDLAHTFGIALEEQTDVLSFHDNDGHEWILECASQSEILFFYCYLLNSESIQINSILEMNSNRELLGMFFLSLKDDNILLNIAFPADKIDITEFANLMENGYLLKNEIIRSLSSRPTDFLP” was “not soluble”.
On to “MSLIIRKLFEFENAHIVRFCSSKRCKSSIHGHSYKVEVLLESKYLDNAGMVYDFGLLKTYIRQIIDSFDHAITLFKYDDAKYLEEMKKYSSRWICLPVNVSAENFCRVFFILIDALLKQTKMVNGEQGVTLQSIIVHETRTGYAQGFREDAYSELMPKISLQDIEFSNGIKAEWNDIDFYNKLKNEEIFINPKEEGHHHHHH”, for which the “soluble on expression in E. coli” value is reported as “soluble”.
Take “MAGDPMMKKDKDTNDQKSESHMKHNDESKVPEDMTSTNEGEFKVGDKVTITAGHMPGMKGAEATVKGAYKTYAYVVSYKPTNGNEKVNNHKWVVNEEIKDAPKDGFSKDDTVKLEANHMSGMKGATANIDNVKKTTVYVVDYKSKDNGKIIKNHKWMTGNELKARLEHHHHHH”: the “soluble on expression in E. coli” value was “soluble”.
Take “MSLTDLDRVGLPVFQAVRPMGRSLSVSQGKGMTSMAARVSAMMEAVEIWHAEQDLPTTLRATIRSLGTRRAMDPNQLLMPGRDKVCEDLPIVWCPSLNLLDGADVLVPRDAANLDFTRAPDPPMLARSTTGLAGGNTRDEARASAIAEVIERACQREFQRLPPASRAQRRLDPTCLASAHRGLADPIERIRSAGLHLDIFDMTNRFDVPAIRAVIYETTAGKPVAWPCLGHGAHLDPVTAVVRALTEAAQARLTGISGNRDDISPGHYAGADMSNWVLRAMNGMDMSGTRRGLRHHDASGDSPAADVAAMIARITAHDADPLLEVDLSRPEIGVPVVKIIAPRIAYLASREGHHHHHH”: the “soluble on expression in E. coli” value was “not soluble”.
Then “MNKIALFVDVQNIYYTCREAYQRQFNYRKLWQHLSTQGEIVSAVAYAIHRGDDGQLKFQDALRHIGFELKLKPFIQRSDGSAKGDWDVGITIDVLDAAPNVDTVILLSGDGDFAILLEKITQKYGVKAEVYGVPQLTAKALMDATTQFNPIDDVLLL”, with “soluble”; and “MDEFIIKRAKELQGYIVEKRRDFHMYPELKYEEERTSKIVEEELKKLGYEVVRTAKTGVIGILKGKEDGKTVALRADMDALPIQEENDVPYKSRVPGKMHACGHDAHTAMLLGAAKILAEMKDELQGTVKLIFQPAEEGGLGAKKIVEEGHLDDVDAIFGIHVWAELPSGIIGIKSGPLLASADAFRVLIKGKGGHGAAPHLSIDPIALAVDLVNAYQKIISREVDPLQPAVLSVTSIKAGTTFNVIPESAEILGTIRTFDEEVRDYIVRRMKEITENFANGMRCEGKFELTIEHIPPTINNEKLANFARDVLKVLGEIREPKPTMGAEDFAFYTTKAPGLFIFLGIRNEEKGIIYPHHHPKFNVDEDILWMGAAIHSLLTYHYLSL”, with “soluble”; and “ASHHLRMHFKTLPAGESLGSLGLWVWGDVDQPSKDWPNGAITMTKAKKDDYGYYLDVPLAAKHRQQVSYLINNKAGENLSKDQHISLLTPKMNEVWIDENYHAHAYRPLKEGYLRINYHNQSGHYDNLAVWTFKDVKTPTTDWPNGLDLSHKGHYGAYVDVPLKEGANEIGFLILDKSKTGDAIKVQPKDYLFKELDNHTQVFVKDTDPKVYNNPYYID”, with “soluble”.
“MSLTNDVDAIQPIGLRRIDHIAQTMKFDEMQDWLLYYISTFEMDKSSIVNVNDPSGIILSQAIESPEGEVRLNLNASEDLNTFAGLFVEDKFGAGVQHIAFASDDIFESANLLRINGFKSLAIPSGYYEETKNKFNLNDTFIAQLKKQNILYDQDGNSEYFQIYSKNLFDGFFFEIVQRKNGYSGYGARNASVRLSSQTILQQAEGHHHHHH”: the “soluble on expression in E. coli” value is “not soluble”.
For the sequence “MTEQLKDFDVAEHLTSEEEIQLYLNEILQEDNIELILSALGDIARARNMSQIARDAGISREGLYKALSGTGNPTFATVMKVMKALNLQFQVQQSRFA”, the “soluble on expression in E. coli” value was “not soluble”.
The value for “SAKVSELYDVTWEEMRDKMRKWREENSRNSEQIVEVGEELINEYASKLGDDIWIIYEQVMIAALDYGRDDLALFCLQELRRQFPGSHRVKRLTGMRFEAMERYDDAIQLYDRILQEDPTNTAARKRKIAIRKAQGKNVEAIRELNEYLEQFVGDQEAWHELAELYINEHDYAKAAFCLEELMMTNPHNHLYCQQYAEVKYTQGGLENLELSRKYFAQALKLNNRNMRALFGLYMSASHIASNPKASAKTKKDNMKYASWAASQINRAYQFAGRSKKETKYSLKAVEDMLETLQITQS” was “not soluble”.
As for “MERRKDTEVALAQRDTILQTILDASPDSIGIFNENMVYQACNKPFVNALGISEVSDLIGKRLQDVIPVEMYTRLETSDLHALRQAEPVRYIDKVVSSDGHITWFDVVKSPFKDKASGTNGVLIMARDIS”, the “soluble on expression in E. coli” value is recorded as “not soluble”.
Then “MKTPRLLQYLAYPQKITGPIIEAELRDVAIGELCEIRRGWHQKQVVARAQVVGLQRERTVLSLIGNAQGLSRDVVLYPTGRALSAWVGYSVLGAVLDPTGKIVERFTPEVAPISEERVIDVAPPSYASRVGVREPLITGVRAIDGLLTCGVGQRMGIFASAGCGKTMLMHMLIEQTEADVFVIGLIGERGREVTEFVDMLRASHKKEKCVLVFATSDFPSVDRCNAAQLATTVAEYFRDQGKRVVLFIDSMTRYARALRDVALASGERPARRGYPASVFDNLPRLLERPGATSEGSITAFYTVLLESEEEADPMADEIRSILDGHLYLSRKLAGQGHYPAIDVLKSVSRVFGQVTTPTHAEQASAVRKLMTRLEELQLFIDLGEYRPGENIDNDRAMQMRDSLKAWLCQPVAQYSSFDDTLSGMNAFADQN”, with “not soluble”; and “MAESRSPDRGAKEDKPRPRNISREESLQLEGYKHACHALLHAPSQAKLFDRVPIRRVLLMMMRFDGRLGFPGGFVDTRDISLEEGLKRELEEELGPALATVEVTEDDYRSSQVREHPQKCVTHFYIKELKLEEIERIEAEAVNAKDHGLEVMGLIRVPLYTLRDRVGGLPAFLCNNFIGNSKSQLLYALRSLKLLREDQIQEVLKASHRLQY”, with “soluble”.
The value for “SLDEAEMKAVNIHDGIDGTLMILHHRLKAAIRRPKIEIVKDYAKLPLIECYPGKLNQVFMNILANAIDALEEGMGNEEIPPPTGQITIRTEVLDNQWVVIRIADNGPGMKEEVIRRIYDPFFTTKDVGKGTGLGMAISYQIVVDKHGGMLKCRSQPGEGTEFWIQIPVNCALADAAEEG” was “soluble”; that for “GPGSMHSEQSICEFIHMQRELRRCYATMENYEVVIAQLRDDCALSRAQLCRFQQEHAQRGKDVEAQVRAELTEQTNARLSALRQSEASDALCLKTSAGPDRNTTDAAEEYRRDTCQATLDELRRALQEEQSAHAECLARLTEALAAKARWKSRAVELLKWRKQVCGQMYMSSTPSSSSFVAGARAIGTCGALPGVSTISNCASDSQAEPNAGNSASDVSSPSQRLYRPPSPYKPPPCVSSPSEAGKLRSSMTSEASAALPASPYEGGTGACAADKENEKDSSSTPGADISCQSDSTAVSFLSPSTTPAGRVAQALGSGVVVVWPPLAERQEMSTRKSAESSRTQSSTTAAALESGNPALLDDSGKQGLQPSPPTSSVSPGVLPSSVGRYTTSAVGSRTQAGCRLPLVGCEKAVVAAEPLRVMPDPFAFPRPPPSGGVTCTNHSLLSTSDELPTSCDVSAAMASSAAERQCNELLRALLDKEQQLALIAEERTKYKRLYEATQS” was “not soluble”.
